Molecular target: rGlu^1-hPg[S741A] (human)
Assay: SPR

Substance	Kd	koff	kon
rSK_(AP53) (natural protein)	321 nM	0.00246 s⁻¹	–
rSK_(NS53) (natural protein)	–	0.00616 s⁻¹	1.18e+06 M⁻¹ s⁻¹
rSK_(NS88.2) (natural protein)	202 nM	0.00314 s⁻¹	15500 M⁻¹ s⁻¹
rSK_(NS210) (natural protein)	–	0.00737 s⁻¹	302000 M⁻¹ s⁻¹
rSK_(NS223) (natural protein)	255 nM	0.00178 s⁻¹	–
rSK_(NS455) (natural protein)	232 nM	0.00306 s⁻¹	13200 M⁻¹ s⁻¹
rSK_(NS931) (natural protein)	–	0.00467 s⁻¹	375000 M⁻¹ s⁻¹
rSK_(NZ131) (natural protein)	–	0.0087 s⁻¹	1.02e+06 M⁻¹ s⁻¹

— PMC3516755
